# Laboratory results: patent US20200308575A1 (TWIST BIOSCIENCE, published 2020)
# Read-outs that look alike come from different tables or passages of the source.
# Assays:
# [1] = target: T1, program cell death protein 1 (PD-1) (UniProt Q15116 25-167, limits assumed); assay: SPR (Carterra LSA), IgG, monovalent affinity
# [2] = target: T1, program cell death protein 1 (PD-1); assay: cell-based or functional assay
# [3] = target: T1, program cell death protein 1 (PD-1); assay: SPR (Carterra LSA), IgG, monovalent affinity; remark: listed apart in the source
# T1 sequence (Q15116 25-167 limits assumed): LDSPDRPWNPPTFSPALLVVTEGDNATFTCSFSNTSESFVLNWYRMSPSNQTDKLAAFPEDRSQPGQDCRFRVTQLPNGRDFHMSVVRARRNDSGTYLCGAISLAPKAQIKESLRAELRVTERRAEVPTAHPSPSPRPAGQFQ
Binder,Kd [1],Bmax (RU) (PD-1/PD-L1 blockade assay) [2],IC50 (PD-1/PD-L1 blockade assay) [2],Kd [3]
"PD1-1 (antibody, V domains shown, IgG in the assay) VH: QVQLVQSGAEVKKPGASVKVSCKASGYTFSHYGISWVRQAPGQGLEWMGWVSAYSGNTRYAQKLQGRVTMTTDTSTSTAYMELRSLRSDDTAVYYCARDATYSSGSGYWGQGTLVTVSS VL: SYELMQPPSVSVSPGQTARITCSGDALPTQYAYWYQQKPGQAPVLVIYQDNERPSGIPERFSGSSSGTTVTLTISGVQAEDEADYYCQSADNSITYRVFGGGTKLTVL",4.5 nM,693 RU,0.434 nM,4.52 nM
"PD1-7 (antibody, V domains shown, IgG in the assay) VH: QVQLVQSGAEVKKPGASVKVSCKASGYTFTHYGITWVRQAPGQGLEWMGWISAYSGSTNYAQKLQGRVTMTTDTSTSTAYMELRSLRSDDTAVYYCARDADYSIGSGYWGQGTLVTVSS VL: SYELMQPPSVSVSPGQTARITCSGDALPNQYAFWYQQKPGQAPVLVIYKDNERPSGIPERFSGSSSGTTVTLTISGVQAEDEADYYCQSADNSITYRVFGGGTKLTVL",10.5 nM,642 RU,0.896 nM,
"PD1-2 (antibody, V domains shown, IgG in the assay) VH: QVQLVQSGAEVKKPGASVKVSCKASGYSFSNYGISWVRQAPGQGLEWMGWVSAYSGNTNYAQKLQGRVTMTTDTSTSTAYMELRSLRSDDTAVYYCARDADYASGSGYWGQGTLVTVSS VL: SYELMQPPSVSVSPGQTARITCSGDELPNQYAYWYQQKPGQAPVLVIYKDTQRPSGIPERFSGSSSGTTVTLTISGVQAEDEADYYCQSADNSITYRVFGGGTKLTVL",9.8 nM,661 RU,0.848 nM,
"PD1-8 (antibody, V domains shown, IgG in the assay) VH: QVQLVQSGAEVKKPGASVKVSCKASGYTFSHYGISWVRQAPGQGLEWMGWISPYSGNTKYAQKLQGRVTMTTDTSTSTAYMELRSLRSDDTAVYYCARDNDYSSGSGYWGQGTLVTVSS VL: SYELMQPPSVSVSPGQTARITCSGDELPKQYAYWYQQKPGQAPVLVIYKDNERASGIPERFSGSSSGTTVTLTISGVQAEDEADYYCQSADNSITYRVFGGGTKLTVL",78.1 nM,436 RU,1.97 nM,
